Data: paper PMC9122207, “PTEN differentially regulates endocytosis, migration, and proliferation in the enteric protozoan parasite Entamoeba histolytica” (PLoS Pathogens, 2022)

What was measured:
Assay in all cases: malachite green phosphate release, Lineweaver-Burk
Assay type in all cases: biochemical, Entamoeba histolytica
Details in all cases: 100 mM MOPS pH 6.0, 37°C, 40 min, di-C8 lipid
[1] = test system: CCCCCCCC(=O)OC[C@H](COP(=O)(O)O[C@H]1[C@H](O)[C@@H](OP(=O)(O)O)[C@H](OP(=O)(O)O)[C@@H](OP(=O)(O)O)[C@H]1O)OC(=O)CCCCCCC
Source text: (§1) malachite green phosphate release, Lineweaver-Burk on EhPTEN1

[2] = test system: CCCCCCCC(=O)OC[C@H](COP(=O)(O)O[C@@H]1[C@H](O)[C@H](OP(=O)(O)O)[C@@H](O)[C@H](OP(=O)(O)O)[C@H]1O)OC(=O)CCCCCCC
Source text: as §1

[3] = test system: CCCCCCCC(=O)OC[C@H](COP(=O)(O)O[C@H]1[C@H](O)[C@@H](O)[C@H](OP(=O)(O)O)[C@@H](OP(=O)(O)O)[C@H]1O)OC(=O)CCCCCCC
Source text: as §1

EhPTEN1 (Entamoeba histolytica HM-1:IMSS)
Km [1]: 92.5 ± 4.72 µM
Vmax [1]: 0.0169 µmol/min/mg
kcat [1]: 0.00517 ± 0.0005 s⁻¹
Km [2]: 161 ± 20.1 µM
Vmax [2]: 0.0084 µmol/min/mg
kcat [2]: 0.0025 ± 0.000167 s⁻¹
Km [3]: 292 ± 18.8 µM
Vmax [3]: 0.00602 µmol/min/mg
kcat [3]: 0.00183 ± 0.000333 s⁻¹
